The results in this text go back to publication PMC6703946 (Molecular microbiology, 2019).

The target of the experiment is T1, Spx with N-terminal His6 tag (S. aureus, UniProt P60379 1-131).
T1 sequence (looked up): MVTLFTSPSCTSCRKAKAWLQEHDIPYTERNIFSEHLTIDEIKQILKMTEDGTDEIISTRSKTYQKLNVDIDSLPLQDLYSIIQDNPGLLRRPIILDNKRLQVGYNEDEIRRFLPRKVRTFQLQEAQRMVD
The experiment can be described thus: native gel or EMSA.

B1: αCTD (residues 245 to 314 of the RNA polymerase α subunit RpoA) (domain or fragment, S. aureus, UniProt Q2FW32 245-314, looked up)
chain: KEKVLEMSIEELDLSVRSYNCLKRAGINSVQELADKSEADMMKVRNLGRKSLEEVKYKLEDLGLGLRKED
As to B1, the binding result was “binds”.
